Each binder was assayed against T1, FcγRIa extracellular domain with C-terminal His tag (human, UniProt P12314 16-292) (assay: SPR Biacore, relative FcγRIa binding vs GpH7-A5/GpH7-B3/GpL16-k0).
T1 construct: extracellular domain; also called FcgRI; CD64; not shown: His tag at the C terminus
T1 sequence (P12314 16-292): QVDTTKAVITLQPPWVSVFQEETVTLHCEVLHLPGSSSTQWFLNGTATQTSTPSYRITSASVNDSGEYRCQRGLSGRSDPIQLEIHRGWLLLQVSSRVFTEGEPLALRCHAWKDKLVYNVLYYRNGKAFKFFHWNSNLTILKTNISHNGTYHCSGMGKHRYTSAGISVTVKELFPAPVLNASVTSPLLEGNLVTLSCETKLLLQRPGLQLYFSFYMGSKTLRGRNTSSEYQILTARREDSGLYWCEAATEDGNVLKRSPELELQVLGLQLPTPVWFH

Row | Binder | He/Con_1a
1 | GpH7-A5/GpH7-B3 variant S298_07I/GpL16-k0 (antibody, human IgG1, kappa, mutation in one H chain only; also called He Ab S298_07I; S298I) heavy 1: not shown heavy 2: not shown light: DIVMTQSPLSLPVTPGEPASISCQASESLVHSNRNTYLHWYLQKPGQSPQLLIYKVSNRFSGVPDRFSGSGSGTDFTLKISRVEAEDVGVYYCSQNTHVPPTFGQGTKVEIERTVAAPSVFIFPPSDEQLKSGTASVVCLLNNFYPREAKVQWKVDNALQSGNSQESVTEQDSKDSTYSLSSTLTLSKADYEKHKVYACEVTHQGLSSPVTKSFNRGEC | 107 % of HeCon Ab (=100)
2 | GpH7-A5/GpH7-B3 variant S298_12R/GpL16-k0 (antibody, human IgG1, kappa, mutation in one H chain only; also called He Ab S298_12R; S298R) heavy 1: not shown heavy 2: not shown light: DIVMTQSPLSLPVTPGEPASISCQASESLVHSNRNTYLHWYLQKPGQSPQLLIYKVSNRFSGVPDRFSGSGSGTDFTLKISRVEAEDVGVYYCSQNTHVPPTFGQGTKVEIERTVAAPSVFIFPPSDEQLKSGTASVVCLLNNFYPREAKVQWKVDNALQSGNSQESVTEQDSKDSTYSLSSTLTLSKADYEKHKVYACEVTHQGLSSPVTKSFNRGEC | 109 % of HeCon Ab (=100)
3 | GpH7-A5/GpH7-B3 variant S298_18N/GpL16-k0 (antibody, human IgG1, kappa, mutation in one H chain only; also called He Ab S298_18N; S298N) heavy 1: not shown heavy 2: not shown light: DIVMTQSPLSLPVTPGEPASISCQASESLVHSNRNTYLHWYLQKPGQSPQLLIYKVSNRFSGVPDRFSGSGSGTDFTLKISRVEAEDVGVYYCSQNTHVPPTFGQGTKVEIERTVAAPSVFIFPPSDEQLKSGTASVVCLLNNFYPREAKVQWKVDNALQSGNSQESVTEQDSKDSTYSLSSTLTLSKADYEKHKVYACEVTHQGLSSPVTKSFNRGEC | 108 % of HeCon Ab (=100)
4 | GpH7-A5/GpH7-B3 variant S298_15Y/GpL16-k0 (antibody, human IgG1, kappa, mutation in one H chain only; also called He Ab S298_15Y; S298Y) heavy 1: not shown heavy 2: not shown light: DIVMTQSPLSLPVTPGEPASISCQASESLVHSNRNTYLHWYLQKPGQSPQLLIYKVSNRFSGVPDRFSGSGSGTDFTLKISRVEAEDVGVYYCSQNTHVPPTFGQGTKVEIERTVAAPSVFIFPPSDEQLKSGTASVVCLLNNFYPREAKVQWKVDNALQSGNSQESVTEQDSKDSTYSLSSTLTLSKADYEKHKVYACEVTHQGLSSPVTKSFNRGEC | 107 % of HeCon Ab (=100)

Now from value to binder:

Row | He/Con_1a | Binder
5 | 114 % of HeCon Ab (=100) | GpH7-A5/GpH7-B3 variant S298_06M/GpL16-k0 (antibody, human IgG1, kappa, mutation in one H chain only; also called He Ab S298_06M; S298M) heavy 1: not shown heavy 2: not shown light: DIVMTQSPLSLPVTPGEPASISCQASESLVHSNRNTYLHWYLQKPGQSPQLLIYKVSNRFSGVPDRFSGSGSGTDFTLKISRVEAEDVGVYYCSQNTHVPPTFGQGTKVEIERTVAAPSVFIFPPSDEQLKSGTASVVCLLNNFYPREAKVQWKVDNALQSGNSQESVTEQDSKDSTYSLSSTLTLSKADYEKHKVYACEVTHQGLSSPVTKSFNRGEC
6 | 109 % of HeCon Ab (=100) | GpH7-A5/GpH7-B3 variant S298_16H/GpL16-k0 (antibody, human IgG1, kappa, mutation in one H chain only; also called He Ab S298_16H; S298H) heavy 1: not shown heavy 2: not shown light: DIVMTQSPLSLPVTPGEPASISCQASESLVHSNRNTYLHWYLQKPGQSPQLLIYKVSNRFSGVPDRFSGSGSGTDFTLKISRVEAEDVGVYYCSQNTHVPPTFGQGTKVEIERTVAAPSVFIFPPSDEQLKSGTASVVCLLNNFYPREAKVQWKVDNALQSGNSQESVTEQDSKDSTYSLSSTLTLSKADYEKHKVYACEVTHQGLSSPVTKSFNRGEC
7 | 107 % of HeCon Ab (=100) | GpH7-A5/GpH7-B3 variant S298_14T/GpL16-k0 (antibody, human IgG1, kappa, mutation in one H chain only; also called He Ab S298_14T; S298T) heavy 1: not shown heavy 2: not shown light: DIVMTQSPLSLPVTPGEPASISCQASESLVHSNRNTYLHWYLQKPGQSPQLLIYKVSNRFSGVPDRFSGSGSGTDFTLKISRVEAEDVGVYYCSQNTHVPPTFGQGTKVEIERTVAAPSVFIFPPSDEQLKSGTASVVCLLNNFYPREAKVQWKVDNALQSGNSQESVTEQDSKDSTYSLSSTLTLSKADYEKHKVYACEVTHQGLSSPVTKSFNRGEC
8 | 107 % of HeCon Ab (=100) | GpH7-A5/GpH7-B3 variant S298_08L/GpL16-k0 (antibody, human IgG1, kappa, mutation in one H chain only; also called He Ab S298_08L; S298L) heavy 1: not shown heavy 2: not shown light: DIVMTQSPLSLPVTPGEPASISCQASESLVHSNRNTYLHWYLQKPGQSPQLLIYKVSNRFSGVPDRFSGSGSGTDFTLKISRVEAEDVGVYYCSQNTHVPPTFGQGTKVEIERTVAAPSVFIFPPSDEQLKSGTASVVCLLNNFYPREAKVQWKVDNALQSGNSQESVTEQDSKDSTYSLSSTLTLSKADYEKHKVYACEVTHQGLSSPVTKSFNRGEC
9 | 108 % of HeCon Ab (=100) | GpH7-A5/GpH7-B3 variant S298_10E/GpL16-k0 (antibody, human IgG1, kappa, mutation in one H chain only; also called He Ab S298_10E; S298E) heavy 1: not shown heavy 2: not shown light: DIVMTQSPLSLPVTPGEPASISCQASESLVHSNRNTYLHWYLQKPGQSPQLLIYKVSNRFSGVPDRFSGSGSGTDFTLKISRVEAEDVGVYYCSQNTHVPPTFGQGTKVEIERTVAAPSVFIFPPSDEQLKSGTASVVCLLNNFYPREAKVQWKVDNALQSGNSQESVTEQDSKDSTYSLSSTLTLSKADYEKHKVYACEVTHQGLSSPVTKSFNRGEC

Reference: patent US20180155451A1 (published 2018)
